Consider 21 sequences from the supplement of paper PMC9170038.

This series concerns K4 kissing-loop RNA reporter. The series is described as follows: apparent KD of K4 kissing-loop reporter; higher = weaker reporter binding. The following applies: Eterna round: R107. The method, then: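 RNA-MaP round R107: designed RNA switches with theophylline, tryptophan, arginine or FMN aptamers are transcribed on-chip within common flanks. They are titrated with a labelled K4 kissing-loop RNA reporter in RNA-MaP buffer (100 mM Tris pH 7.5, 80 mM KCl, 4 mM MgCl2), without ligand or with the indicated ligand. Median apparent KD per design.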

Where [1] appears, read: input ligand: theophylline 20 uM.
The mark [2] stands for this setting: input ligand: tryptophan 2.4 mM.
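Note: bound reporter read as fluorescence of individual clusters on recovered sequencing chips by microscopy, with normalized cluster intensities fitted with a binding model.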

Consider “UGGCGAGUGAUGUUCGUUGUUGUAGUGUGUCGAGGACCGGUACGGCCGCCACUCGAGUUGGUUGUUGUUGUUGCUGUUGUUGCUG [#03 K4 Tryptophan A Same State]”, for which the “apparent KD of K4 kissing-loop reporter” value by setting is: (input ligand: FMN 200 uM) 0.196 µM; (input ligand: arginine 13.2 mM) 0.158 µM; (input ligand: none) 0.181 µM; under setting [1], 0.157 µM; under setting [2], 0.099 µM.
With “UGGCGAGUGAUGUUCGUUGUUGUAGUGUGUCGAGGACCGGUACGGCCGCCACUCGGGUUGGUUGUUGUUGUUGUUGUUGUUGUUG [First Shot]”, the “apparent KD of K4 kissing-loop reporter” value turned out to be 0.218 µM (input ligand: FMN 200 uM); 0.187 µM (input ligand: arginine 13.2 mM); 0.196 µM (input ligand: none); 0.292 µM under setting [1]; 0.101 µM under setting [2].
“UGGCGUAGAACCGCCGAAUCGCUGUGAGAAGGAGCGGUAAAAUUGCCAGGUAGGUCGCUCACAGCCUCACAGUGAUGUUGUGGGA [Cequralaza]”: the “apparent KD of K4 kissing-loop reporter” value runs as follows: (input ligand: FMN 200 uM) 0.758 µM; (input ligand: arginine 13.2 mM) 0.105 µM; (input ligand: none) 0.117 µM; under setting [1], 0.29 µM; under setting [2], 0.212 µM.
Take “UGGGAUGUUAAAGGAUAUAGCAAGUGAUAUAAGAAAGUGAGUGAUGUUGAUGUAGGUGAUGAUAUGUUAGAAGGUUAACAAAACG [abcdefg]”: the “apparent KD of K4 kissing-loop reporter” value by setting is: (input ligand: FMN 200 uM) 0.35 µM; (input ligand: arginine 13.2 mM) 0.217 µM; (input ligand: none) 0.356 µM; under setting [1], 0.294 µM; under setting [2], 0.257 µM.
For the sequence “UGUAAGCGCGUAGAUACCAGCAAACAAAGAGUGAUGUUCAGAUUAAGGAAAAGAAAGUAAUGCCCUUGGCAGCUAAUCAUAAGCG [Theophylline B Exclusion; Euphoria Solution]”, the “apparent KD of K4 kissing-loop reporter” value runs as follows: (input ligand: FMN 200 uM) 0.419 µM; (input ligand: arginine 13.2 mM) 0.409 µM; (input ligand: none) 0.354 µM; under setting [1], 0.497 µM; under setting [2], 0.319 µM.
As to “UGUAAUGAGUGAUGUUCAUGUAGUAAGGAUACCAGUAAUUCAAAAUGCCCUUGGCAGCUUAGUUCUAUCUAUAGUUGGGUAGUGG [Theophilline A V4 (+5U)]”, the “apparent KD of K4 kissing-loop reporter” value runs as follows: (input ligand: FMN 200 uM) 0.162 µM; (input ligand: arginine 13.2 mM) 0.209 µM; (input ligand: none) 0.205 µM; under setting [1], 0.206 µM; under setting [2], 0.123 µM.
In the case of “UGUACCGAGACAGGAUAUGUCGUCGAAAGACGAAAUGGAGUGAUGUUCCUUAAACUGCGAAAGCAGACAGAAGGGUCUUGGUACU [FmnBS 29 A10+U76]”, the “apparent KD of K4 kissing-loop reporter” value was found to be 0.132 µM (input ligand: FMN 200 uM); 0.172 µM (input ligand: arginine 13.2 mM); 0.163 µM (input ligand: none); 0.165 µM under setting [1]; 0.176 µM under setting [2].
For the sequence “UGUACCGAGGCAGGAUAUGUCGUCGAAAGACGAAAUGGAGUGAUGUUCCUUAAACUGCGAAAGCAGACAGAAGGGUCUUGGUACU [FmnBS 29 G10+U76]”, the “apparent KD of K4 kissing-loop reporter” value (input ligand: FMN 200 uM) worked out at 0.132 µM; the “apparent KD of K4 kissing-loop reporter” value (input ligand: arginine 13.2 mM) is 0.178 µM; the “apparent KD of K4 kissing-loop reporter” value (input ligand: none) amounted to 0.181 µM; the “apparent KD of K4 kissing-loop reporter” value under setting [1] came to 0.167 µM; the “apparent KD of K4 kissing-loop reporter” value under setting [2] came to 0.171 µM.
On the same counts, the results for “UGUACCGAGUCAGGAUAUGGCGUCGAAAGACGAAUCCUAGUGAUGUUAGGGAUCUGCGAAAGCAGUCCAGAAGGGACUUGGUACU [FmnBS 26 #SwitchBubble #StaticStem #DoubleMagnetSystem]” are 0.275 µM, 0.34 µM, 0.357 µM, 0.389 µM and 0.373 µM.
The matching figures for “UGUACCGAGUUAGGAUAUGUCGUCGAAAGACGAAAUGGAGUGAUGUUCCUUAAACUGCGAAAGCAGACAGAAGGAACUUGGUACU [FmnBS 29 U11+A75]”: 0.19 µM, 0.627 µM, 0.544 µM, 0.546 µM and 0.476 µM.
The matching figures for “UGUAUGUGAUGUGAUACCAGUGAAGAGCCAGUGAUGUUGGUAGAACUGGUAUAUAAAUAACACCCUUGGCAGCACAGUCACGUAC [whbob_Ex_Theo_B_sa100]”: 0.305 µM, 0.241 µM, 0.297 µM, 0.279 µM and 0.242 µM.
As to “UGUAUGUGAUUUGAUACCAGACAAGCAGGUGUGACAAGAGUGAUGUUCUUGAUGGUUUGGGUCCCUUGGCAGCAAAUCGCAUACU [KL-SSTheoB16]”, the “apparent KD of K4 kissing-loop reporter” value runs as follows: (input ligand: FMN 200 uM) 0.194 µM; (input ligand: arginine 13.2 mM) 0.145 µM; (input ligand: none) 0.178 µM; under setting [1], 0.141 µM; under setting [2], 0.154 µM.
The matching figures for “UGUAUGUGAUUUGAUACCAGACCAGGUGGAGGAAUCUGAGUGAUGUUCAGGUAGGUUUGGGUCCCUUGGCAGCAAAUCGCAUACU [KL-SSTheoB18]”: 0.173 µM, 0.136 µM, 0.149 µM, 0.176 µM and 0.158 µM.
Turning to “UGUAUGUGUCAGCGAGUGAUGUUCGACGAUACCAGACUCGAUAGAGUCCCUUGGCAGCGUAAUGCAUGCCAAACUGGCACAUACU [#SwitchBubble 13 #K4Early]”, the “apparent KD of K4 kissing-loop reporter” value is, setting by setting: (input ligand: FMN 200 uM) 0.657 µM; (input ligand: arginine 13.2 mM) 0.532 µM; (input ligand: none) 0.682 µM; under setting [1], 0.594 µM; under setting [2], 0.6 µM.
Turning to “UGUCAUGGAAACAUGAACGUUAAAAUAAAUCGAGGACCGGUACGGCCGCCACUCGUAUAGCGGUCAGUGAUGUUGACUGUAAUAA [KL-SSTryp-A form2 sub10]”, the “apparent KD of K4 kissing-loop reporter” value runs as follows: (input ligand: FMN 200 uM) 0.101 µM; (input ligand: arginine 13.2 mM) 0.121 µM; (input ligand: none) 0.11 µM; under setting [1], 0.116 µM; under setting [2], 0.0943 µM.
The matching figures for “UGUCAUUGGUCGGCCGCCACUAGGACCGGGAUUUUUCUAGUGAUGUUAGUUUGGUCGGCCGCCACUAGGACCGGGACCGAUGACU [KL-SSTryp-B13 #DoubleAptamer]”: 0.638 µM, 0.345 µM, 0.644 µM, 0.453 µM and 0.0868 µM.
The matching figures for “UGUCAUUGGUCGGCCGCCACUAGGACCGGGUAUAACCUAGUGAUGUUAGUAAAUACGGCCGCCACUAGGACCGGGACCGAUGACU [KL-SSTryp-B18 #DoubleAptamer]”: 0.415 µM, 0.296 µM, 0.583 µM, 0.471 µM and 0.102 µM.
The matching figures for “UGUCAUUGGUCGGCCGCCACUAGGACCGGGUUUUACCUAGUGAUGUUAGUAUAAACGGCCGCCACUAGGACCGGGACCGAUGACU [KL-SSTryp-B24 #DoubleAptamer]”: 0.846 µM, 0.447 µM, 0.547 µM, 0.434 µM and 0.122 µM.
As to “UGUCAUUGGUCGGCCGCCACUAUAAUAAAAGAGUGAUGUUCUAAAAGACGGACAAAAGUCUGUCAUAGGACCGGGACCGAUGACU [TrypBS 25 #SwitchBubble #StaticStem]”, the “apparent KD of K4 kissing-loop reporter” value reads like this: (input ligand: FMN 200 uM) 0.822 µM; (input ligand: arginine 13.2 mM) 0.43 µM; (input ligand: none) 0.589 µM; under setting [1], 0.131 µM; under setting [2], 0.616 µM.
The matching figures for “UGUCAUUGGUCGGCCGCCACUUCAUAAAGAGUGAUGUUCUAAAAGACGGAUCGAAAGAUCUGUCGAAGGACCGGGACCGAUGACU [TrypBS 18 #SwitchBubble #StaticStem]”: 1.41 µM, 0.641 µM, 1.2 µM, 0.915 µM and 0.279 µM.
On to “UGUCAUUGGUCGGCCGCCACUUCAUAAAGAGUGAUGUUCUGAAAGACGGAUCGAAAGAUCUGUCGAAGGACCGGGACCGAUGACU [FiskerMod 1 - Jieux - Same State - Tryptophan B]”, for which the “apparent KD of K4 kissing-loop reporter” value is, setting by setting: (input ligand: FMN 200 uM) 1.16 µM; (input ligand: arginine 13.2 mM) 1.2 µM; (input ligand: none) 2.08 µM; under setting [1], 1.43 µM; under setting [2], 0.236 µM.
